Measurements from patent WO2019198731A1.

Target: three HER2 antigens (HER2 fragment proteins used for panning)
Assay: monoclonal phage ELISA on immobilised HER2 antigens

B1: H44 clone (VHH displayed on monoclonal M13 phage) (VHH)
VHH: QVQLVESGGTLVQAGGSLRLSCAASGRTFSSYAMGWFRQAPGKEREFVAAIRLKTDYSDSVKGRFTISRDNAKNTVYLQMNSLKPEDTAVYYCAAWLRRGYGASWYLTGADPRYWGRGTRVTVSS
  abs. at 450 nm: > 1.5
